{"source": "patent US20090092614A1", "key": {"[1]": {"target": "murine IGF-1R(1-903)-Fc (murine; human) (UniProt Q60751)", "sequence (Q60751 31-933 limits assumed, form in doubt)": "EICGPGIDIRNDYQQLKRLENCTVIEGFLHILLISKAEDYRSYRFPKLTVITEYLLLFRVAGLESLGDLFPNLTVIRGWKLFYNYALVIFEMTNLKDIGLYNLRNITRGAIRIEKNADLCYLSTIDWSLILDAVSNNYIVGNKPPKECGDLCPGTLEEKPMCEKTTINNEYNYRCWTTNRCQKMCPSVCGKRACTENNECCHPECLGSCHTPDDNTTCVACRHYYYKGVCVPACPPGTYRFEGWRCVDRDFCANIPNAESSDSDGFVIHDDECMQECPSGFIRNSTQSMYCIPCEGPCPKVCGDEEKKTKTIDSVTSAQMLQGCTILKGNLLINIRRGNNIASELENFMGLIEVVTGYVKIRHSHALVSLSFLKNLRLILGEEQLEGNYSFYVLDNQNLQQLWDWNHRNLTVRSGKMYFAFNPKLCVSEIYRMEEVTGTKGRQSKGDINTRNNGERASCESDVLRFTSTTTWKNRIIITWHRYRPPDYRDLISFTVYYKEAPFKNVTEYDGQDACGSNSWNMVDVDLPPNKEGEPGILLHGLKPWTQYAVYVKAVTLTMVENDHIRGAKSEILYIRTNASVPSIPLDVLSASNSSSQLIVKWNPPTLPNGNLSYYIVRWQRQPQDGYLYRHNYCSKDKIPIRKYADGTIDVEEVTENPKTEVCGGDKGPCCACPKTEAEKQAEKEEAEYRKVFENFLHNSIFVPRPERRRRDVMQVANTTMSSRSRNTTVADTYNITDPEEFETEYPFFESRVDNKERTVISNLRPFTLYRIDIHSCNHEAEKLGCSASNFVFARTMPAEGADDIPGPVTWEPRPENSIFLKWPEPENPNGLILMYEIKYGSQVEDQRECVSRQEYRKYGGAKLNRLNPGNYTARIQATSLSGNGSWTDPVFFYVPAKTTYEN", "experiment": "SPR"}, "[2]": {"target": "murine IGF-1R(1-903)-Fc (murine; human) (UniProt Q60751)", "experiment": "SPR, Fab over receptor-Fc captured on M13-C06 surface"}}}
{"binder": "M13-C06 Fab (Fab, V domains shown) VH: EVQLLESGGGLVQPGGSLRLSCAASGFTFSIYRMQWVRQAPGKGLEWVSGISPSGGTTWYADSVKGRFTISRDNSKNTLYLQMNSLRAEDTAVYYCARWSGGSGYAFDIWGQGTMVTVSS VL: DIQMTQSPLSLSASVGDRVTITCQASRDIRNYLNWYQQKPGKAPKLLIYDASSLQTGVPSRFGGSGSGTDFSFTIGSLQPEDIATYYCQQFDSLPHTFGQGTKLEIK", "values": [{"measurement": "fold decrease in binding against human IGF-1R", "setting": "[1]", "result": 100, "unit": "fold"}, {"measurement": "Biacore Relative RUmax", "setting": "[2]", "result": 0}]}
